Experimental data published in PMC9242541, “Importance of Rare DPYD Genetic Polymorphisms for 5-Fluorouracil Therapy in the Japanese Population” (Frontiers in Pharmacology, 2022).

Target: the molecule itself
Assay: native gel or EMSA; blue native PAGE (Tris-glycine buffer, 5%-20% polyacrylamide gels), 9 μg of the soluble fraction of transfected 293FT cells per lane, immunoblot with polyclonal anti-human DPD antibody; monomer to dimer

B1: DPD variant A380V (enzyme, human, UniProt Q12882 4-1025, looked up)
chain: VLSKDSADIESILALNPRTQTHATLCSTSAKKLDKKHWKRNPDKNCFNCEKLENNFDDIKHTTLGERGALREAMRCLKCADAPCQKSCPTNLDIKSFITSIANKNYYGAAKMIFSDNPLGLTCGMVCPTSDLCVGGCNLYATEEGPINIGGLQQFATEVFKAMSIPQIRNPSLPPPEKMSEAYSAKIALFGAGPASISCASFLARLGYSDITIFEKQEYVGGLSTSEIPQFRLPYDVVNFEIELMKDLGVKIICGKSLSVNEMTLSTLKEKGYKAAFIGIGLPEPNKDAIFQGLTQDQGFYTSKDFLPLVAKGSKAGMCACHSPLPSIRGVVIVLGAGDTAFDCATSALRCGARRVFIVFRKGFVNIRAVPEEMELVKEEKCEFLPFLSPRKVIVKGGRIVAMQFVRTEQDETGKWNEDEDQMVHLKADVVISAFGSVLSDPKVKEALSPIKFNRWGLPEVDPETMQTSEAWVFAGGDVVGLANTTVESVNDGKQASWYIHKYVQSQYGASVSAKPELPLFYTPIDLVDISVEMAGLKFINPFGLASATPATSTSMIRRAFEAGWGFALTKTFSLDKDIVTNVSPRIIRGTTSGPMYGPGQSSFLNIELISEKTAAYWCQSVTELKADFPDNIVIASIMCSYNKNDWTELAKKSEDSGADALELNLSCPHGMGERGMGLACGQDPELVRNICRWVRQAVQIPFFAKLTPNVTDIVSIARAAKEGGANGVTATNTVSGLMGLKSDGTPWPAVGIAKRTTYGGVSGTAIRPIALRAVTSIARALPGFPILATGGIDSAESGLQFLHSGASVLQVCSAIQNQDFTVIEDYCTGLKALLYLKSIEELQDWDGQSPATVSHQKGKPVPRIAELMDKKLPSFGPYLEQRKKIIAENKIRLKEQNVAFSPLKRNCFIPKRPIPTIKDVIGKALQYLGTFGELSNVEQVVAMIDEEMCINCGKCYMTCNDSGYQAIQFDPETHLPTITDTCTGCTLCLSVCPIVDCIKMVSRTTPYEPKRGVPLSVNPVC
notes: dihydropyrimidine dehydrogenase (DPD), human, DPYD cDNA with a variant found in Japanese individuals; made by site-directed mutagenesis of the wild-type construct; also called 1139C > T; source: 293FT cells, transfected (pcDNA3.4), soluble fraction
- stoichiometry N: 2

B2: DPD variant V434L (enzyme, human, UniProt Q12882 4-1025, looked up)
chain: VLSKDSADIESILALNPRTQTHATLCSTSAKKLDKKHWKRNPDKNCFNCEKLENNFDDIKHTTLGERGALREAMRCLKCADAPCQKSCPTNLDIKSFITSIANKNYYGAAKMIFSDNPLGLTCGMVCPTSDLCVGGCNLYATEEGPINIGGLQQFATEVFKAMSIPQIRNPSLPPPEKMSEAYSAKIALFGAGPASISCASFLARLGYSDITIFEKQEYVGGLSTSEIPQFRLPYDVVNFEIELMKDLGVKIICGKSLSVNEMTLSTLKEKGYKAAFIGIGLPEPNKDAIFQGLTQDQGFYTSKDFLPLVAKGSKAGMCACHSPLPSIRGVVIVLGAGDTAFDCATSALRCGARRVFIVFRKGFVNIRAVPEEMELAKEEKCEFLPFLSPRKVIVKGGRIVAMQFVRTEQDETGKWNEDEDQMVHLKADVLISAFGSVLSDPKVKEALSPIKFNRWGLPEVDPETMQTSEAWVFAGGDVVGLANTTVESVNDGKQASWYIHKYVQSQYGASVSAKPELPLFYTPIDLVDISVEMAGLKFINPFGLASATPATSTSMIRRAFEAGWGFALTKTFSLDKDIVTNVSPRIIRGTTSGPMYGPGQSSFLNIELISEKTAAYWCQSVTELKADFPDNIVIASIMCSYNKNDWTELAKKSEDSGADALELNLSCPHGMGERGMGLACGQDPELVRNICRWVRQAVQIPFFAKLTPNVTDIVSIARAAKEGGANGVTATNTVSGLMGLKSDGTPWPAVGIAKRTTYGGVSGTAIRPIALRAVTSIARALPGFPILATGGIDSAESGLQFLHSGASVLQVCSAIQNQDFTVIEDYCTGLKALLYLKSIEELQDWDGQSPATVSHQKGKPVPRIAELMDKKLPSFGPYLEQRKKIIAENKIRLKEQNVAFSPLKRNCFIPKRPIPTIKDVIGKALQYLGTFGELSNVEQVVAMIDEEMCINCGKCYMTCNDSGYQAIQFDPETHLPTITDTCTGCTLCLSVCPIVDCIKMVSRTTPYEPKRGVPLSVNPVC
notes: dihydropyrimidine dehydrogenase (DPD), human, DPYD cDNA with a variant found in Japanese individuals; made by site-directed mutagenesis of the wild-type construct; also called 1300G > C; source: 293FT cells, transfected (pcDNA3.4), soluble fraction
- stoichiometry N: 2

B3: DPD variant F438V (enzyme, human, UniProt Q12882 4-1025, looked up)
chain: VLSKDSADIESILALNPRTQTHATLCSTSAKKLDKKHWKRNPDKNCFNCEKLENNFDDIKHTTLGERGALREAMRCLKCADAPCQKSCPTNLDIKSFITSIANKNYYGAAKMIFSDNPLGLTCGMVCPTSDLCVGGCNLYATEEGPINIGGLQQFATEVFKAMSIPQIRNPSLPPPEKMSEAYSAKIALFGAGPASISCASFLARLGYSDITIFEKQEYVGGLSTSEIPQFRLPYDVVNFEIELMKDLGVKIICGKSLSVNEMTLSTLKEKGYKAAFIGIGLPEPNKDAIFQGLTQDQGFYTSKDFLPLVAKGSKAGMCACHSPLPSIRGVVIVLGAGDTAFDCATSALRCGARRVFIVFRKGFVNIRAVPEEMELAKEEKCEFLPFLSPRKVIVKGGRIVAMQFVRTEQDETGKWNEDEDQMVHLKADVVISAVGSVLSDPKVKEALSPIKFNRWGLPEVDPETMQTSEAWVFAGGDVVGLANTTVESVNDGKQASWYIHKYVQSQYGASVSAKPELPLFYTPIDLVDISVEMAGLKFINPFGLASATPATSTSMIRRAFEAGWGFALTKTFSLDKDIVTNVSPRIIRGTTSGPMYGPGQSSFLNIELISEKTAAYWCQSVTELKADFPDNIVIASIMCSYNKNDWTELAKKSEDSGADALELNLSCPHGMGERGMGLACGQDPELVRNICRWVRQAVQIPFFAKLTPNVTDIVSIARAAKEGGANGVTATNTVSGLMGLKSDGTPWPAVGIAKRTTYGGVSGTAIRPIALRAVTSIARALPGFPILATGGIDSAESGLQFLHSGASVLQVCSAIQNQDFTVIEDYCTGLKALLYLKSIEELQDWDGQSPATVSHQKGKPVPRIAELMDKKLPSFGPYLEQRKKIIAENKIRLKEQNVAFSPLKRNCFIPKRPIPTIKDVIGKALQYLGTFGELSNVEQVVAMIDEEMCINCGKCYMTCNDSGYQAIQFDPETHLPTITDTCTGCTLCLSVCPIVDCIKMVSRTTPYEPKRGVPLSVNPVC
notes: dihydropyrimidine dehydrogenase (DPD), human, DPYD cDNA with a variant found in Japanese individuals; made by site-directed mutagenesis of the wild-type construct; also called 1312T > G; source: 293FT cells, transfected (pcDNA3.4), soluble fraction
- stoichiometry N: 2

B4: DPD variant K384E (enzyme, human, UniProt Q12882 4-1025, looked up)
chain: VLSKDSADIESILALNPRTQTHATLCSTSAKKLDKKHWKRNPDKNCFNCEKLENNFDDIKHTTLGERGALREAMRCLKCADAPCQKSCPTNLDIKSFITSIANKNYYGAAKMIFSDNPLGLTCGMVCPTSDLCVGGCNLYATEEGPINIGGLQQFATEVFKAMSIPQIRNPSLPPPEKMSEAYSAKIALFGAGPASISCASFLARLGYSDITIFEKQEYVGGLSTSEIPQFRLPYDVVNFEIELMKDLGVKIICGKSLSVNEMTLSTLKEKGYKAAFIGIGLPEPNKDAIFQGLTQDQGFYTSKDFLPLVAKGSKAGMCACHSPLPSIRGVVIVLGAGDTAFDCATSALRCGARRVFIVFRKGFVNIRAVPEEMELAKEEECEFLPFLSPRKVIVKGGRIVAMQFVRTEQDETGKWNEDEDQMVHLKADVVISAFGSVLSDPKVKEALSPIKFNRWGLPEVDPETMQTSEAWVFAGGDVVGLANTTVESVNDGKQASWYIHKYVQSQYGASVSAKPELPLFYTPIDLVDISVEMAGLKFINPFGLASATPATSTSMIRRAFEAGWGFALTKTFSLDKDIVTNVSPRIIRGTTSGPMYGPGQSSFLNIELISEKTAAYWCQSVTELKADFPDNIVIASIMCSYNKNDWTELAKKSEDSGADALELNLSCPHGMGERGMGLACGQDPELVRNICRWVRQAVQIPFFAKLTPNVTDIVSIARAAKEGGANGVTATNTVSGLMGLKSDGTPWPAVGIAKRTTYGGVSGTAIRPIALRAVTSIARALPGFPILATGGIDSAESGLQFLHSGASVLQVCSAIQNQDFTVIEDYCTGLKALLYLKSIEELQDWDGQSPATVSHQKGKPVPRIAELMDKKLPSFGPYLEQRKKIIAENKIRLKEQNVAFSPLKRNCFIPKRPIPTIKDVIGKALQYLGTFGELSNVEQVVAMIDEEMCINCGKCYMTCNDSGYQAIQFDPETHLPTITDTCTGCTLCLSVCPIVDCIKMVSRTTPYEPKRGVPLSVNPVC
notes: dihydropyrimidine dehydrogenase (DPD), human, DPYD cDNA with a variant found in Japanese individuals; made by site-directed mutagenesis of the wild-type construct; also called 1150A > G; source: 293FT cells, transfected (pcDNA3.4), soluble fraction
- stoichiometry N: 2
